From article PMC8385704

target: ACE2-Fc fusion protein (extracellular domain of human ACE2 and the Fc region of human IgG1) (human) (UniProt Q9BYF1); assay: ELISA

Row | Substance | EC50
1 | recombinant S1-subunit or RBD of SARS-CoV-2 variant B.1.1.7 (domain or fragment) | 0.8 nM
2 | recombinant S1-subunit or RBD of SARS-CoV-2 variant B.1.351 (domain or fragment) | 6.9 nM
3 | recombinant S1-subunit or RBD of SARS-CoV-2 variant B.1.617.1 (domain or fragment) | 51.3 nM
4 | recombinant S1-subunit or RBD of SARS-CoV-2 variant P.1 (domain or fragment) | 14.9 nM
5 | recombinant S1-subunit or RBD of SARS-CoV-2-D614G (domain or fragment) | 2.6 nM
